In paper PMC6376064:

Biological target: Nrf2 (UniProt Q60795)
Assay: anti-Flag (Nrf2) co-IP, immunoblot
Conditions: reference: Keap1 wild type; sites T51,S53,T55,T80

binding against the reference: stronger
Substance: Keap1 (from UniProt Q9Z2X8) Keap1 4A
